Reference: publication PMC11640301, “Escherichia coli tRNA (Gm18) methyltransferase (TrmH) requires the correct localization of its methylation site (G18) in the D-loop for efficient methylation” (Journal of Biochemistry, 2023)

What was measured:
[1] = target: E. coli TrmH (without a tag sequence) (Escherichia coli, UniProt P0AGJ2); assay: radiometric filter assay, methyl transfer to tRNA transcript; assay type: biochemical; conditions: methyl donor; 200 μM SAM, tRNA^SerCGA transcript, pH 7.6, 37 °C; labelled compound
[2] = target: the molecule itself; assay: crystal structure; E107G TrmH co-crystallised with 2 mM SAM; hanging-drop vapor diffusion, 20°C, 100 mM HEPES-NaOH (pH 7.6), 5% MPD, 10% PEG 6000; space group C2, one E107G-SAM molecule per asymmetric unit; dimer
[3] = target: T1, TrmH (tRNA Gm18 methyltransferase) (Thermus thermophilus, UniProt Q5SM16 1-194); assay: EMSA; 5 mM Mg-acetate, 400 mM KCl; no SAM listed; tRNA 4.25 uM; 50 mM Tris-HCl pH 7.6, 5 mM Mg-acetate, 6 mM 2-mercaptoethanol, 400 mM KCl, 5% glycerol; room temperature 30 min; 4.25 uM tRNA, 0-17 uM TrmH; 6% native PAGE; conditions: protein: recombinant; chain copies: 2; label: none; tRNA cloverleaf, long variable region
T1 sequence: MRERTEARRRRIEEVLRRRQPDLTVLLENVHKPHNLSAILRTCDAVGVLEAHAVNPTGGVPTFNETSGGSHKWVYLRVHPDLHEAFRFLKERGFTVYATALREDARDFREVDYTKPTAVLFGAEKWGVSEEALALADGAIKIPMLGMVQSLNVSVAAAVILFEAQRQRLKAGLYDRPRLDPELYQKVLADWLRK

[4] = target: T2, TrmH (tRNA Gm18 methyltransferase) (Escherichia coli HB101 (gene source), UniProt P0AGJ2 1-229); assay: EMSA; 5 mM Mg-acetate, 400 mM KCl; no SAM listed; tRNA 4.25 uM, complex at enzyme below 10 uM; slightly weaker than T. thermophilus TrmH; 50 mM Tris-HCl pH 7.6, 5 mM Mg-acetate, 6 mM 2-mercaptoethanol, 400 mM KCl, 5% glycerol; room temperature 30 min; 4.25 uM tRNA, 0-17 uM TrmH; 6% native PAGE; conditions: protein: recombinant; tags: none (pET30a, untagged); chain copies: 2; label: none; tRNA cloverleaf, long variable region
T2 sequence: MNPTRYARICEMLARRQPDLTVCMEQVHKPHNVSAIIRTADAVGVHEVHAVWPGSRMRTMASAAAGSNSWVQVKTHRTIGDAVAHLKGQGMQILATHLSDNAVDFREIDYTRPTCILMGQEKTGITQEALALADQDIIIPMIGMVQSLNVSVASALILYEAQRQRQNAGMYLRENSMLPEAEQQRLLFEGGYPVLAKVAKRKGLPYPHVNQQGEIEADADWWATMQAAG

Molecule: C[S+](CC[C@H](N)C(=O)O)C[C@H]1O[C@@H](n2cnc3c(N)ncnc32)[C@H](O)[C@@H]1O (stereo partly drawn) [S-adenosyl-L-methionine]
- radiometric filter assay, methyl transfer to tRNA transcript [1]: incorporation of the methyl group from [methyl-^3H]-SAM into E. coli tRNA^SerCGA transcript was monitored

B1: E. coli TrmH (E107G) mutant, tRNA (Gm18) methyltransferase, with 6x His tag (enzyme, UniProt P0AGJ2 1-229, looked up)
chain: MNPTRYARICEMLARRQPDLTVCMEQVHKPHNVSAIIRTADAVGVHEVHAVWPGSRMRTMASAAAGSNSWVQVKTHRTIGDAVAHLKGQGMQILATHLSDNAVDFRGIDYTRPTCILMGQEKTGITQEALALADQDIIIPMIGMVQSLNVSVASALILYEAQRQRQNAGMYLRENSMLPEAEQQRLLFEGGYPVLAKVAKRKGLPYPHVNQQGEIEADADWWATMQAAG
notes: TrmH, tRNA (Gm18) 2'-O-methyltransferase of Escherichia coli; trmH gene amplified from E. coli HB101 genomic DNA with primers from the start codon to the stop codon; Glu107 replaced with Gly; No removal of the His tag is described; One molecule per asymmetric unit, so the dimer is formed by crystal symmetry; also called E107G mutant TrmH; E107G-SAM; source: E. coli BL21 (DE3) Rosetta 2, …
- stoichiometry N [2]: 2

B2: tRNASerCGA transcript (structured_RNA)
RNA: GGAGAGAUGCCGGAGCGGCUGAACGGACCGGUCUCGAAAACCGGAGUAGGGGCAACUCUACCGGGGGUUCAAAUCCCCCUCUCUCCGCCA
modifications: none (unmodified transcript)
- binding result [3]: binds
- binding result [4]: binds
